Square brackets hold non-standard residues; d marks the D form. Ends that are not written are not given here. Lys(Me2) = CN(C)CCCC[C@H](N)C(=O)O
How the values were obtained:
CHD1aa270-443 [1] = biological target: T1, CHD1aa270-443 (UniProt O14646 270-443); assay: co-crystal structure of the CHD1 double chromodomain with the LSD1 K114me2 peptide
T1 construct: Recombinant fragment; also called CHD1 double chromodomain fragment
T1 sequence (looked up): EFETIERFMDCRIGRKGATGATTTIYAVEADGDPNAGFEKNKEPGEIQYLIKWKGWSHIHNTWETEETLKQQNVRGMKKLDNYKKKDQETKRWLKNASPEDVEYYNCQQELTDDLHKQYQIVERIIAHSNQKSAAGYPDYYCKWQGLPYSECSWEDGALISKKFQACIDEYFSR
Experimental: Crystals (space group P21212) were grown by sitting drop vapour diffusion at 4° C. in buffer containing 100 mM Hepes pH 7.5, 0.2 M L-proline, 10% (w/v) PEG3350. Prior to flash cooling in liquid nitrogen, crystals were cryoprotected in reservoir solution with 20% (v/v) ethylene glycol. Initial X-ray diffraction data were collected at the PXI beamline at the Swiss Light Source at 1=1.000 Å with a Pilatus detector. […] Data were processed and analyzed with XDS28 and Aimless²⁹. The structure was solved by molecular replacement with Phaser³⁰ using 2B2W as a search model. Manual building and refinement were performed using Coot31 and Refmac532 in the CCP4 program suite³³.

CHD1aa270-443 [2] = biological target: T1, CHD1aa270-443; assay: isothermal titration calorimetry (data not shown)
CHD1 D425A = biological target: T2, CHD1 D425A (UniProt O14646 270-443, limits assumed); assay: isothermal titration calorimetry (data not shown)
T2 construct: also called D425A mutation in CHD1
T2 sequence (looked up): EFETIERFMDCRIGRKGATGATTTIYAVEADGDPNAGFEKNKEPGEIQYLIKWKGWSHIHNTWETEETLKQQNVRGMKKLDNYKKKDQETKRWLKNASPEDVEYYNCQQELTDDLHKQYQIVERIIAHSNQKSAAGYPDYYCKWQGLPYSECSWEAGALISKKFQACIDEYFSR

Flag-LSD1 K114A = biological target: T3, Flag-LSD1 K114A (UniProt O60341 1-852, limits assumed); assay: co-immunoprecipitation with anti-Flag antibody from transfected 293T cells without G9A, Western blot decorated with anti-CHD1
T3 construct: Obtained by site directed mutagenesis of Flag-LSD1; not shown: Flag tag

B1: LSD1aa108-119 K114me2 peptide (peptide, UniProt O60341 108-119, looked up)
peptide: RRTSRR[Lys(Me2)]RAKVE
notes: range 108-119; Peptide used for co-crystallisation; only residues 110-116 were modelled in the electron density; also called LSD1aa110-116 K114me2 (residues modelled in the structure); LSD1 K114me2 peptide
binding result (CHD1aa270-443 [1]): binds

TPEGRRTSRA[Lys(Me2)]RAKVEYREMDESL (peptide, UniProt O60341 104-127, looked up, also called LSD1 R113A K114me2 peptide) [LSD1 K114me2 peptide with R113 mutated to alanine]
binding result (CHD1aa270-443 [2]): no binding

B2: LSD1aa104-127 K114me2 peptide (peptide, UniProt O60341 104-127, looked up)
peptide: TPEGRRTSRR[Lys(Me2)]RAKVEYREMDESL
notes: range 104-127; Synthetic peptide, used on the microarray and in ITC; also called LSD1 K114me2 peptide; dimethylated LSD1 peptide
binding result (CHD1 D425A): no binding

B3: endogenous CHD1 (enzyme, human, UniProt O14646 1-1710, looked up)
chain: MNGHSDEESVRNSSGESSQSDDDSGSASGSGSGSSSGSSSDGSSSQSGSSDSDSGSESGSQSESESDTSRENKVQAKPPKVDGAEFWKSSPSILAVQRSAILKKQQQQQQQQQHQASSNSGSEEDSSSSEDSDDSSSEVKRKKHKDEDWQMSGSGSPSQSGSDSESEEEREKSSCDETESDYEPKNKVKSRKPQNRSKSKNGKKILGQKKRQIDSSEEDDDEEDYDNDKRSSRRQATVNVSYKEDEEMKTDSDDLLEVCGEDVPQPEEEEFETIERFMDCRIGRKGATGATTTIYAVEADGDPNAGFEKNKEPGEIQYLIKWKGWSHIHNTWETEETLKQQNVRGMKKLDNYKKKDQETKRWLKNASPEDVEYYNCQQELTDDLHKQYQIVERIIAHSNQKSAAGYPDYYCKWQGLPYSECSWEDGALISKKFQACIDEYFSRNQSKTTPFKDCKVLKQRPRFVALKKQPSYIGGHEGLELRDYQLNGLNWLAHSWCKGNSCILADEMGLGKTIQTISFLNYLFHEHQLYGPFLLVVPLSTLTSWQREIQTWASQMNAVVYLGDINSRNMIRTHEWTHHQTKRLKFNILLTTYEILLKDKAFLGGLNWAFIGVDEAHRLKNDDSLLYKTLIDFKSNHRLLITGTPLQNSLKELWSLLHFIMPEKFSSWEDFEEEHGKGREYGYASLHKELEPFLLRRVKKDVEKSLPAKVEQILRMEMSALQKQYYKWILTRNYKALSKGSKGSTSGFLNIMMELKKCCNHCYLIKPPDNNEFYNKQEALQHLIRSSGKLILLDKLLIRLRERGNRVLIFSQMVRMLDILAEYLKYRQFPFQRLDGSIKGELRKQALDHFNAEGSEDFCFLLSTRAGGLGINLASADTVVIFDSDWNPQNDLQAQARAHRIGQKKQVNIYRLVTKGSVEEDILERAKKKMVLDHLVIQRMDTTGKTVLHTGSAPSSSTPFNKEELSAILKFGAEELFKEPEGEEQEPQEMDIDEILKRAETHENEPGPLTVGDELLSQFKVANFSNMDEDDIELEPERNSKNWEEIIPEDQRRRLEEEERQKELEEIYMLPRMRNCAKQISFNGSEGRRSRSRRYSGSDSDSISEGKRPKKRGRPRTIPRENIKGFSDAEIRRFIKSYKKFGGPLERLDAIARDAELVDKSETDLRRLGELVHNGCIKALKDSSSGTERTGGRLGKVKGPTFRISGVQVNAKLVISHEEELIPLHKSIPSDPEERKQYTIPCHTKAAHFDIDWGKEDDSNLLIGIYEYGYGSWEMIKMDPDLSLTHKILPDDPDKKPQAKQLQTRADYLIKLLSRDLAKKEALSGAGSSKRRKARAKKNKAMKSIKVKEEIKSDSSPLPSEKSDEDDDKLSESKSDGRERSKKSSVSDAPVHITASGEPVPISEESEELDQKTFSICKERMRPVKAALKQLDRPEKGLSEREQLEHTRQCLIKIGDHITECLKEYTNPEQIKQWRKNLWIFVSKFTEFDARKLHKLYKHAIKKRQESQQNSDQNSNLNPHVIRNPDVERLKENTNHDDSSRDSYSSDRHLTQYHDHHKDRHQGDSYKKSDSRKRPYSSFSNGKDHRDWDHYKQDSRYYSDREKHRKLDDHRSRDHRSNLEGSLKDRSHSDHRSHSDHRLHSDHRSSSEYTHHKSSRDYRYHSDWQMDHRASSSGPRSPLDQRSPYGSRSPFEHSVEHKSTPEHTWSSRKT
notes: Endogenous protein in cell extracts; also called endogenously expressed CHD1
binding result (Flag-LSD1 K114A): no binding

Source: patent publication US20180036256A1 (ALBERT LUDWIGS UNIVERSIT T FREIBURG, published 2018)
